The supplement of paper PMC10567573
± gives the standard deviation.

Experiment: protein stability index of a GFP-peptide fusion (GPS, HEK-293T) (PSI 1-6); higher = more stable
[1] = treatment: DMSO, c terminus: a fixed tail appended
[2] = treatment: MLN4924 1 uM, 8 h, c terminus: a fixed tail appended
[3] = treatment: DMSO, c terminus: native
[4] = treatment: MLN4924 1 uM, 8 h, c terminus: native
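Further: 24-mer peptide tiles fused after GFP, lentivirally expressed, FACS-sorted into six equal bins by GFP/DsRed ratio, decoded by Illumina sequencing, PSI is the read-weighted mean bin number.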

Row | Sequence | protein stability index [1] | protein stability index [2] | protein stability index [3] | protein stability index [4]
1 | VFITYSMDTAMEVVKFVNFLLVNG [TRAF3IP2] | 3.39 ± 0.062 | 2.06 ± 0.64 |  | 
2 | VGVFLDFESGSVSFLNVTKSSLIW [TRIM43] | 3.08 ± 0.73 | 2.506 ± 0.003 |  | 
3 | VIEPVVENSGILQGKLIKRQRLAK [EFHC1] |  | 3.68 ± 0.65 |  | 
4 | VILGVTNPFFAKTLQHWPHIIRIG [DENND6A] | 2.94 ± 0.67 | 2.78 ± 0.46 |  | 
5 | VINQADVRNNRSIIKQLKDVFERD [PLD5] | 3.2 ± 0.2 | 3.29 ± 0.35 |  | 
6 | VIPFKVDTILKYLKDHFSHLLGIP [IQUB] | 2.92 ± 0.12 | 2.65 ± 0.18 |  | 
7 | VITLDPQTASRSLVLSEDRKSVRY [TRIM15] | 3.44 ± 0.2 | 3.64 ± 0.14 |  | 
8 | VKRLLRSDAEAVSTRWEVIAEDGT [TAF7L] | 3.69 ± 0.3 | 3.73 ± 0.64 |  | 
9 | VLALRNMKNLLFSEMWDIFLVRLL [MFSD9] | 2.13 ± 0.44 | 2.14 ± 0.49 |  | 
10 | VLDLSKSLSAALLTAALLTFDTGC [POMT2] | 3.38 ± 0.38 | 2.98 ± 0.2 |  | 
11 | VLEEQLVKAKEQIENYKKQTRNGL [FUT8] | 3.77 ± 0.1 | 3.89 ± 0.35 |  | 
12 | VLKTRMALRKTGQYSGMLDCARRI [SLC25A25] | 2.53 ± 0.17 | 2.78 ± 0.18 |  | 
13 | VLLTQIESKKHQVETAFERLQQEL [TRIM15] | 2.73 ± 0.27 | 2.77 ± 0.38 |  | 
14 | VLSSWSRAFVSIQEEMAEDPLTYK [RHOBTB2] | 2.89 ± 0.14 | 3.17 ± 0.6 |  | 
15 | VLTDSEGWILIDRCGKHFGTILNY [KCTD10] | 2.37 ± 0.59 | 2.31 ± 0.2 |  | 
16 | VLTEPILIETYTGLMSFIGNRNKL [TPRG1] | 2.21 ± 0.36 | 2.27 ± 0.51 |  | 
17 | VLTIALPVPVIVSNFNYFYHRETE [KCNA1] | 3.02 ± 0.47 | 3.06 ± 0.41 |  | 
18 | VLVNLVPAHKNLNKQAYDLAKALL [PDS5B] | 3.47 ± 0.59 | 3.07 ± 0.89 |  | 
19 | VMAYDRYMAICKPLHELITMNRRV [OR4A15] | 2.25 ± 0.35 | 2.23 ± 0.37 |  | 
20 | VNCISPLKYFSDFRPYFTIHDSEF [DENND6A] | 2.27 ± 0.68 | 1.92 ± 0.19 |  | 
21 | VNEFSLKGVDFQKFCMNGAALCAL [ETS1] | 2.32 ± 0.76 | 2.3 ± 0.033 |  | 

Row | Sequence | protein stability index [1] | protein stability index [2] | protein stability index [3] | protein stability index [4]
22 | VNLQRFGMNGQMLCNLGKERFLEL [ETS2] | 2.27 ± 0.36 | 2.27 ± 0.33 |  | 
23 | VPPGVVNIVFGTGPRVGEALVSHP [ALDH8A1] | 2.21 ± 0.36 | 2.27 ± 0.35 |  | 
24 | VQAWPFTCLPLGVLMKGQHLHLET [PRAME] | 2.58 ± 0.3 | 2.82 ± 0.39 |  | 
25 | VQGLMKEYLLSFPAGKTPVPAGEE [VPS39] | 3.83 ± 0.39 | 3.88 ± 0.093 |  | 
26 | VQQWLQKGTPASKLILGMPTYGRS [CHIT1] | 2.25 ± 0.25 | 2.51 ± 0.29 |  | 
27 | VRFSLGTTTHAPPGVHRRYSALRE [PPFIA4] | 2.72 ± 0.19 | 2.76 ± 0.19 |  | 
28 | VRGEDSGRKPERRRLKTTRLKEYT [DAPK3] | 3.97 ± 0.45 | 4.51 ± 0.17 |  | 
29 | VRGPLQDSSWYEPSAELVQTRMAV [ZNF232] | 2.96 ± 0.17 | 3.09 ± 0.24 |  | 
30 | VRNLFGLDPSSGAIHVLGPIDFEE [PCDHGC5] | 2.19 ± 0.14 | 2.33 ± 0.14 |  | 
31 | VRNNRSIIKQLKDVFERDWYSPYA [PLD5] | 2.41 ± 0.54 | 2.41 ± 0.21 |  | 
32 | VRSKYNDDIRKGIVLLEELLPKGS [FIS1] | 2.87 ± 0.04 | 2.84 ± 0.14 |  | 
33 | VRSLRGEEPVPRERDRDPCGGSGG [LURAP1L] | 5.34 ± 0.24 | 5.35 ± 0.095 |  | 
34 | VRVNDGGGSHPSRPNSRHTPSFSG [VDR] | 3.72 ± 0.14 | 3.86 ± 0.19 |  | 
35 | VRVNVLLSRYLIEPCGPGKSKLTY [DLC1] | 3.25 ± 0.83 | 2.68 ± 0.38 |  | 
36 | VSATKAEAEKDGVKVPTTLAEYCI [UBE2R2] | 4.5 ± 0.33 | 4.5 ± 0.28 |  | 
37 | VSFSTGAGGWSNHHFCVILLGFLP [BET1L] | 2.82 ± 0.39 | 2.8 ± 0.36 |  | 
38 | VSMLGYPFILPDMVGGNAVPQRTA [MYORG] | 2.25 ± 0.42 | 2.54 ± 0.32 |  | 
39 | VSRRLSPRKVSTCTDHELENHSMY [TRIM9] | 3.7 ± 0.22 | 3.77 ± 0.19 |  | 
40 | VSSSEQLQSCQAEIIELRRTVNAL [KRT34] | 3.02 ± 0.2 | 2.77 ± 0.3 |  | 
41 | VSTNTAMIQTSKTEITELRRTLQG [KRT13] | 4.08 ± 0.3 | 4.06 ± 0.22 |  | 
42 | VSVTYCSVSQDFPGSNLNLLTNNS [ETS2] | 2.59 ± 0.39 | 2.32 ± 0.39 |  | 

Row | Sequence | protein stability index [1] | protein stability index [2] | protein stability index [3] | protein stability index [4]
43 | VSYQLADGGEPQSVQVDGQARTQK [TNXB] | 5.184 ± 0.024 | 5.21 ± 0.1 |  | 
44 | VTCKDKKGYTPLHAAASNGQINVV [ANKRD44] | 3.34 ± 0.12 | 3.24 ± 0.27 |  | 
45 | VTFAAMQAQQGRSSLVWLFSQLYL [MCOLN1] | 3.03 ± 0.67 | 2.75 ± 0.47 |  | 
46 | VTYMNMTAYNKGRLQSSFWIVDKQ [PLD5] | 2.39 ± 0.6 | 2.33 ± 0.39 |  | 
47 | VVIFQREPESKNAPHSQGEYDVYS [PPP2R2C] | 2.5 ± 0.23 | 2.85 ± 0.27 |  | 
48 | VVKFVNFLLVNGFQTAIDIFEDRI [TRAF3IP2] | 2.33 ± 0.45 | 2.83 ± 0.59 |  | 
49 | VVNHLSCDEARNHYGGVVSLIPLI [SPACA9] | 2.2 ± 0.14 | 2.12 ± 0.24 |  | 
50 | VWVGVIRYLTFFHNYNILIATLRV [MCOLN1] | 3.13 ± 0.1 | 2.86 ± 0.37 |  | 
51 | WAAKAPGASSREEPPEEPEQCPVI [SPDEF] | 5.28 ± 0.31 | 5.27 ± 0.2 |  | 
52 | WAVQGQNVLHGYPKDIYSSFGFPR [MMP1] | 2.39 ± 0.18 | 2.15 ± 0.057 |  | 
53 | WCGISTDMWRSENQNRAYVTLAAH [ZBED1] | 2.37 ± 0.4 | 2.07 ± 0.05 |  | 
54 | WSIFYFFKSFQYPLPWSECPVVRN [SLC6A17] | 2.41 ± 0.17 | 2.59 ± 0.47 |  | 
55 | YALQMEQLNGILLHLESELAQTRA [KRT18] | 2.24 ± 0.18 | 2.43 ± 0.29 |  | 
56 | YDMSDTNSDPEVVNVDNLLAAAVV [C18orf25] | 4.06 ± 0.35 | 4.02 ± 0.26 |  | 
57 | YEELRNSERAEVQRLEEQERRHRE [RSPH3] | 5.4 ± 0.25 | 5.38 ± 0.28 |  | 
58 | YEYDHWDAAIHGFRETEKSRWSEA [ALKBH7] | 3.64 ± 0.38 | 3.73 ± 0.22 |  | 
59 | YEYTSCTTFSTTSGYMEGYYTFHF [FBXO3] | 3.37 ± 0.42 | 3.2 ± 0.31 |  | 
60 | YFLELTQSFIIPLERYVASLMPLQ [DENND6A] | 2.56 ± 0.11 | 3.15 ± 0.33 |  | 
61 | YGRSDVVVLCFSIANPNSLHHVKT [RHOBTB2] | 3.33 ± 0.47 | 2.69 ± 1.8 |  | 
62 | YGTKKFMQELTEMLGFRPYRFYFY [SLC6A17] | 2.29 ± 0.95 | 2.28 ± 0.48 |  | 
63 | YHCPGSPDHQVPYGHDYPRAAYQQ [TRAF3IP2] | 3.13 ± 0.45 | 3.5 ± 0.28 |  | 

Row | Sequence | protein stability index [1] | protein stability index [2] | protein stability index [3] | protein stability index [4]
64 | YHSQDRYEFSSHITRGEHRFHMS [IKZF1] |  |  | 2.85 ± 0.39 | 2.86 ± 0.58
65 | YIHSCPKMKYKGQYRPSDLLCPET [ATE1] | 2.06 ± 0.29 | 2.47 ± 0.34 |  | 
66 | YIRCQKEVGKSFERHKLKRQDADA [SMG5] | 3.46 ± 0.53 | 3.43 ± 0.23 |  | 
67 | YKKAVGLKLKQEKKEAYLKLKQG [WDR88] |  |  | 2.81 ± 0.4 | 3.13 ± 0.3
68 | YKSWLKNLAKEQLSRENIQSSLLE [PPEF2] | 2.72 ± 0.24 | 2.86 ± 0.13 |  | 
69 | YLLKFLLVGDSDVGKGEILESLQD [RAB40C] | 2.72 ± 0.38 | 2.45 ± 0.49 |  | 
70 | YNVIIGWSIFYFFKSFQYPLPWSE [SLC6A17] |  | 3.32 ± 0.67 |  | 
71 | YPENDWDTAAPVPQKDLEIFKNF [PRKX] |  |  | 5.08 ± 0.33 | 5.33 ± 0.25
72 | YQLGEEALLKFREDEGFVREEEDR [KCNA4] | 4.51 ± 0.22 | 4.85 ± 0.31 |  | 
73 | YQNHKITQLKIENNPFAKGFRGSD [TBX5] | 2.96 ± 0.5 | 3.55 ± 0.61 |  | 
74 | YQPKRYALSPKTTITMAHLLAARE [FAM98B] | 2.31 ± 0.091 | 2.6 ± 0.39 |  | 
75 | YQVHDYLRSKLCSLYENDCIFDKF [PPP2R2B] | 2.58 ± 0.71 | 2.27 ± 0.48 |  | 
76 | YRFYFYMWKFVSPLCMAVLTTASI [SLC6A17] |  | 4.42 ± 0.71 |  | 
77 | YRGMLDTHHKLCTFILKNPPENSD [EIF5] | 3.29 ± 0.2 | 3.25 ± 0.18 |  | 
78 | YRRHVLGIVLQGPALCFAAAIFSL [TMEM175] | 2.93 ± 0.18 | 2.85 ± 0.39 |  | 
79 | YSDGADDTFAAYTREQLYQAIFHA [MCOLN1] | 2.54 ± 0.23 | 2.52 ± 0.37 |  | 
80 | YSGPPSPHGTLRVCTISSTGPLQP [PKD2L1] | 2.65 ± 0.57 | 2.83 ± 0.3 |  | 
81 | YSIPEELEKGSFVGNISKDLGLAP [PCDHGA10] | 3.59 ± 0.4 | 3.7 ± 0.29 |  | 
82 | YVASHKIEKEEQEKKRKEEEERRR [ACBD3] | 3.2 ± 1.1 | 4.37 ± 0.73 |  | 
83 | YVEVKEGKTWKQICDKHWTAKNSR [LOXL2] | 2.62 ± 0.8 | 3.28 ± 0.61 |  | 
84 | YYGFSESAESQGLDGAGLMGFVPH [ADAMTSL2] | 3 ± 0.41 | 3 ± 0.47 |  | 
